Source: patent US20050182242A1, “Global analysis of protein activities using proteome chips” (priority 2001, published 2005)

Assays:
PI(4)P liposomes = experiment: Yeast proteome chip probed with PI(4)P liposomes; conditions: liposome binding signal on yeast proteome chip, Cy3-streptavidin detection
[1] = system: phospholipids (phosphatidylinositols vs phosphatidylcholine); experiment: Proteome chip lipid-binding screen, overall analysis of six liposomes (PI/PC specificity); conditions: compared with phosphatidylcholine
Method in brief: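 Yeast proteome chips probed with PC liposomes carrying 1% biotin DHPE, plus 5% PI(3)P, PI(4)P, PI(3,4)P2, PI(4,5)P2 or PI(3,4,5)P3, 1 h at RT. Binding detected with Cy3/Cy5-streptavidin; PI signals normalized to PC signals, giving PI/PC ratios (>1.3 taken as PI-preferential).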

| Molecule | PI(4)P (PI(4)P liposomes) | preferential binding of particular phosphatidylinositol lipids [1] |
| --- | --- | --- |
| CMK1: yeast calcium/calmodulin-dependent serine/threonine protein kinase, GST-HisX6 fusion (protein, left off: a dimerising Fc or GST, yeast calcium/calmodulin-dependent serine/threonine protein kinase, GST-HisX6 fusion) MDDKVSEKESSPKQTEEDSEGKMAHVQPASYVNKKKYVFGKTLGAGTFGVVRQAKNTETGEDVAVKILIKKALKGNKVQLEALYDELDILQRLHHPNIVAFKDWFESKDKFYIITQLAKGGELFDRILKKGKFTEEDAVRILVEILSAVKYMHSQNIVHRDLKPENLLYIDKSDESPLVVADFGIAKRLKSDEELLYKPAGSLGYVAPEVLTQDGHGKPCDIWSIGVITYTLLCGYSAFRAERVQDFLDECTTGEYPVKFHRPYWDSVSNKAKQFILKALNLDPSKRPTAAELLEDPWIICTELKTHNLLPGLKEGLDARQKFRNSVERVRLNMKIQKLRDLYLEQTESDSDFDEGSQANGSVPPLKATDTSQLSKKLSEEEQSKLKSELTSKAFAQLVNTVLAEKEKFLNINRVCSSDSDLPGSDIKSLDEAKEKPEGKDTKTEE | 105.39 |  |
| MY04: yeast class V myosin heavy chain, GST-HisX6 fusion (protein, UniProt P32492 1-1471, looked up, GST-HisX6 tag, yeast class V myosin heavy chain, GST-HisX6 fusion) Myosin-4: MSFEVGTKCWYPHKEQGWIGGEVTKNDFFEGTFHLELKLEDGETVSIETNSFENDDDHPTLPVLRNPPILESTDDLTTLSYLNEPAVLHAIKKRYMNGQIYTYSGIVLIAANPFDKVDHLYSREMIQNYSSKRKDELEPHLFAIAEEAYRFMVHEKANQTVVVSGESGAGKTVSAKYIMRYFASVQESNNREGEVEMSQIESQILATNPIMEAFGNAKTTRNDNSSRFGKYLQILFDENTTIRGSKIRTYLLEKSRLVYQPETERNYHIFYQILEGLPEPVKQELHLSSPKDYHYTNQGGQPNIAGIDEAREYKITTDALSLVGINHETQLGIFKILAGLLHIGNIEMKMTRNDASLSSEEQNLQIACELLGIDPFNFAKWIVKKQIVTRSEKIVTNLNYNQALIARDSVAKFIYSTLFDWLVDNINKTLYDPELDQQDHVFSFIGILDIYGFEHFEKNSFEQFCINYANEKLQQEFNQHVFKLEQEEYVKEEIEWSFIEFSDNQPCIDLIENKLGILSLLDEESRLPSGSDESWASKLYSAFNKPPSNEVFSKPRFGQTKFIVSHYAVDVEYEVEGFIEKNRDSVSLGHLDVFKATTNPIFKQILDNRELRSDDAPEEQNTEKKIMIPARLSQKKPTLGSMFKKSLGELMAIINSTNVHYIRCIKPNSEKKPWEFDNLMVLSQLRACGVLETIRISCAGFPSRWTFDEFVQRYFLLTDYSLWSGILYNPDLPKEAIVNFCQSILDATISDSAKYQIGNTKIFFKAGMLAFLEKLRTNKMNEICIIIQKKIRARYYRLQYLQTMESIKKCQSQIRSLLVRTRVDHELKTRAAILLQTNIRALWKREYYRAAIGQIIKLQCTCKRKLILDSVNRKFMLMAAVIIQSYIRSYGHKTDYRTLKRSSILVQSAMRMQLARRRYIVLQKEVEERNIRASYGIGLLEEAIEFKNSFILNLEMLNDSYTRLTQLLQGDLSNIPSKQRQEYETIVNGYNDKISKLKTLQVEIMNTLNKKNALKERKKKQSSLIQSHMQSLAAIKGNKPSRLSDEVKSMKQELAFIENVIAQDFTTTYSANKNDKVKGLGIAGQQVKPKLVNVIRRESGNPDLLELLMDLNCYTLEVTEGYLKKVNVTEVNGDNVLGPIHVITTVVSSLVRNGLLIQSSKFISKVLLTVESIVMSLPKDETMLGGIFWLSNLSRLPAFAANQKTLYEANGGDEKDKLTLIYLNDLENETLKVFDKIYSTWLVKFMKHASAHIEIFDMVLNEKLFKNSGDEKFAKLFTFLNEFDAVLCKFQVVDSMHTKIFNDTLKYLNVMLFNDLITKCPALNWKYGYEVDRNIERLVSWFEPRIEDVRPNLIQIIQAVKILQLKISNLNEFKLLFDFWYALNPAQIQAILLKYKPANKGEAGVPNEILNYLANVIKRENLSLPGKMEIMLSAQFDSAKNHLRYDTSAITQNSNTEGLATVSKIIKLDRK | 36.58 | preferentially binds PI(4,5)P2 |
